Variants at the floor of the assay were thinned out.

To fix the notation:
B1: TPR 5TU (parent)
chain: GGAUCUUCUCGAUCUAACAAAAAAGACAAAUCUGCCACAAAGCUUGAGAGCAUCUUCGGAUGCAGAGGCGGCAGCCUUCGGUGGCGCGAUAGCGCCAACGUUCUCAACUAUGACACGCAAAACGCGUGCUCCGUUGAAUGGAGUUUAUCAUG

The data set covers variants of B1. In words: polymerase ribozyme fitness, log enrichment relative to wild type (log ratio); higher = more active; in vitro selection for triplet polymerase activity. The essentials: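 The heterodimeric triplet polymerase ribozyme's subunits were each mutagenized into PCR-built libraries and transcribed. Every library was selected once, in triplicate, by annealing with a biotinylated primer, the partner subunit and triplets, incubating frozen at −7 °C, gel-excising extended constructs, capturing on streptavidin beads and running RT-PCR. Input and output libraries were Illumina-sequenced, with genotypes kept only at ≥10 input reads and ≥1 read per output. Fitness, from inverse-variance-weighted replicate averages, is the base-2 logarithm of genotype enrichment over wild-type enrichment.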
Consider C36U G92C G100U G117A A122G, for which the “polymerase ribozyme fitness (log ratio)” value is ≤ -4.2.
The same measure for G74C C99U: ≤ -4.2; for U55A U61G: -3.71; for U55G C85A C99U G136A: -3.43.
The same measure for C10G G92A U111G A150C: ≤ -4.2; for C76A G84U A121G A122G U146A: -3.68; for C57G C129G: -2.74.
Regarding C35U A49C G94C A98G C118U, the “polymerase ribozyme fitness (log ratio)” value is ≤ -4.2.
The same measure for C10G A91C C95U C103G C116G: ≤ -4.2; for A37C C123U: 0.207.
With A28G C36U C87A A119U G133A the figure was ≤ -4.2.
With U9A C27G A73U C93U U102G G117C the figure was ≤ -4.2.
Take C54U C87A A89G C96U A121U A142C: the “polymerase ribozyme fitness (log ratio)” value is ≤ -4.2.
Consider C87U U102G, for which the “polymerase ribozyme fitness (log ratio)” value is -3.08.
The same measure for G83A C93U A107G: ≤ -4.2; for C38A U55A C76A: -1.15; for A37G U55A A73G U111G: ≤ -4.2.
With A37C G42U G58A C96A G117U U146A the figure was ≤ -4.2; with A52G A60G U77G A91U G133U, ≤ -4.2; with A60C C85G, -3.9.
With C8G U15G A17G C18U A20C C32G A73G C93U C125U the figure was ≤ -4.2.
As to C10U C38A G70A C93U A97U C116G U148G, the “polymerase ribozyme fitness (log ratio)” value was ≤ -4.2.
With A39U G94U A122U G143A A147C the figure was ≤ -4.2.
With C8G A21C U77A G92A C118A G136U the figure was ≤ -4.2; with A41C U61G C79U G84C, ≤ -4.2; with G42U C54G C57U G65A G92C A110C, ≤ -4.2.
G58C C93A G141C: the “polymerase ribozyme fitness (log ratio)” value was -2.47.
With A3U A20C C54U G86C C125U the figure was -4.19; with A16U A37C C63U C95U C123A G141U, -4.01.
With G70A C87A C99A the figure was ≤ -4.2.
With G50U C85A A97U G140A, the “polymerase ribozyme fitness (log ratio)” value was ≤ -4.2.
The same measure for C8U A22U C51U G62A C93G C103A C105G: ≤ -4.2; for U55C A91G A106C C129U C131U: ≤ -4.2; for U61C C85U: -2.66.
The same measure for C43G A97U C123U C125A U148G: ≤ -4.2; for C38G C95A G141U: 1.02; for A17G A20U G42C A49C A52U U148A: ≤ -4.2.
With G94U G143A the figure was -1.67; with A30U U78C G94U A98G G152A, ≤ -4.2; with G42C A49C A52C C75U C85U A91U, ≤ -4.2.
As to U44C, the “polymerase ribozyme fitness (log ratio)” value is -1.11.
The same measure for C14U C51U U135C: -3.66; for C51U A98U: -0.337; for C96A A113U U144A: -2.58.
With U53A A122G the figure was -0.748; with U6G U7C A49G G71A C93G, ≤ -4.2.
The same measure for A24C G71A U135C U146C U148A: ≤ -4.2.
For C96U G128U A147C, the “polymerase ribozyme fitness (log ratio)” value is -3.7.
The same measure for U56G G58A A73G C108U A150G: ≤ -4.2; for C36A U82C C93U U135G: ≤ -4.2; for A49G G50C U77A G92A C103G G117U: ≤ -4.2.
The same measure for G84A G143A: -1.65; for C87G C132U: ≤ -4.2.
Regarding C72U C87A G117C G143U, the “polymerase ribozyme fitness (log ratio)” value is ≤ -4.2.
With A39G A60C G84A C87G C95G C118G U145G the figure was ≤ -4.2; with G59A A73G C93U A106G U144G U146C, -0.726.
For the variant A21G U56A, the “polymerase ribozyme fitness (log ratio)” value was -0.198.
On to A40C G42U, for which the “polymerase ribozyme fitness (log ratio)” value is ≤ -4.2.
As for C85A G133C U134G U145G, the “polymerase ribozyme fitness (log ratio)” value was ≤ -4.2.
On to A41U G58A G81C, for which the “polymerase ribozyme fitness (log ratio)” value is -0.606.
With G81A A97G A115G the figure was -0.993; with U9G U90C U148G, ≤ -4.2; with A21C C85G C87U U145G, -3.2.
The same measure for A52G C105A: -0.578; for A39U C96U: -2.1; for C10U G48A G86A G88A C95A: ≤ -4.2.
For the variant U33G C36A G50A A52C G84A A97C A138C, the “polymerase ribozyme fitness (log ratio)” value was -3.92.
In the case of U31G G50C G58U G88U, the “polymerase ribozyme fitness (log ratio)” value was ≤ -4.2.
With C54G C87U G143C the figure was -3.99.
With C85A C105U G141C the figure was -3.45.
Turning to C14U U146G, the “polymerase ribozyme fitness (log ratio)” value was -1.34.
With A21C C125A the figure was 0.331; with A16U C51U G86U U104A C108A G124U, ≤ -4.2; with C32G U33G G92A C114U, -4.15.
The same measure for G70A: -2.75; for A19G U53A C57U C96A G100C U134C G143C: ≤ -4.2.
In the case of A17C G25C A30G U45A A49C G124U, the “polymerase ribozyme fitness (log ratio)” value was -4.16.
Consider C96G G152C, for which the “polymerase ribozyme fitness (log ratio)” value is -3.62.
With C10G A16G U53A U55A G65A G92A A98U G126A A138U U148G the figure was -4.12; with C10U U31A C57A U61A U77C C95A C99U C116U, ≤ -4.2; with C14U U15A A20G C38U C57U U90C U102G A119G A122C, ≤ -4.2.
U53G U90A C93G A110C: the “polymerase ribozyme fitness (log ratio)” value was ≤ -4.2.
With C63A U102C A142G the figure was -2.31; with C54G C57A G58C G94A, -0.504.
The same measure for G59U C93U: -3.08; for C35U C87U C96U C114U: -3.78; for A23U A29U G50A C69G A89C G112C A120U A122U: ≤ -4.2.
With U109G U151C the figure was -3.91.
A47C G58U C99A: the “polymerase ribozyme fitness (log ratio)” value is -2.46.
Turning to C93A U109G C123G, the “polymerase ribozyme fitness (log ratio)” value was -3.37.
With C93U G126A U139C the figure was -4.1; with A52C A91C, ≤ -4.2; with U44G G92C, ≤ -4.2.
With G86A A89U U144C the figure was -1.64; with G59U C76U G83U U102G C123A, ≤ -4.2; with A49C G58C A106C U109A C114A, ≤ -4.2.
With A39U A47G U78A A97U the figure was ≤ -4.2; with A47C G83A A122C, -1.08.
On to C75G G88A A98U C103U, for which the “polymerase ribozyme fitness (log ratio)” value was ≤ -4.2.
The same measure for A22C C27U U127C: -3.95; for A60G C93U: -1.09; for G48C G84A: -3.2.
The same measure for A17U A28G G34C A64C C79G U90G: ≤ -4.2.
With A21U A26U A29G C35A G86U the figure was -4.04; with U4G A73G G92U A107U A122U, -3.96.
U4A A60U A97C U109A: the “polymerase ribozyme fitness (log ratio)” value is -3.
Consider U6G C35U G58C A73G G140U, for which the “polymerase ribozyme fitness (log ratio)” value is ≤ -4.2.
With C27U A41C A73G C75U C93A the figure was ≤ -4.2.
With U15C A91C G94U C96G the figure was ≤ -4.2; with A40G U45A U55G G68C A91C U102G G126A C149G, ≤ -4.2.
With C93A G100U U102G G117U A138C the figure was ≤ -4.2.
As to C35A G65A U144C, the “polymerase ribozyme fitness (log ratio)” value was ≤ -4.2.
In the case of C93A A122U, the “polymerase ribozyme fitness (log ratio)” value is -2.45.
With U55A A73G U135A U146C the figure was -0.581.
With G50C G74A G92U the figure was ≤ -4.2; with A40U C93A U148A, ≤ -4.2; with A12C A119G, -0.0231.
With G62A C93U C118U G143U the figure was -3.81.
For the variant U33A A39U C54U G92A C96G A106U A137G A138C, the “polymerase ribozyme fitness (log ratio)” value is ≤ -4.2.
With A17G C32U C35G G62C C75A the figure was ≤ -4.2.
With A22G U109G the figure was -0.357.
The same measure for U45G G94U G100C A150C: ≤ -4.2.
For A60C G81U C87U, the “polymerase ribozyme fitness (log ratio)” value is -2.07.
With C8G A39U G46U G68C C79U G83A U102A the figure was ≤ -4.2; with A52G U56A A64C G92U, ≤ -4.2; with G48U G74A C85G A115C U134A, ≤ -4.2.
For the variant C5U A26U, the “polymerase ribozyme fitness (log ratio)” value was -1.04.
As to C51U C87A A91U U144G, the “polymerase ribozyme fitness (log ratio)” value is ≤ -4.2.
Turning to A3U A16C U45A C75A U82G G84A C118U, the “polymerase ribozyme fitness (log ratio)” value was ≤ -4.2.
The same measure for G70A G81U: -3.25; for U31A U78A C123G U135G G140U: ≤ -4.2.
With G50C A60C A98U the figure was -3.01; with U56A C57U C63U U101A U104C C108U, ≤ -4.2.
With U56A U78G G112C U139C the figure was ≤ -4.2; with C51G G88A A91G A115U U144G U151C, ≤ -4.2.
As to C14G G34A G128A G141C, the “polymerase ribozyme fitness (log ratio)” value was -3.91.
On to C10U A29U U53A C79G C85U C95G A107U, for which the “polymerase ribozyme fitness (log ratio)” value was ≤ -4.2.
The same measure for A3C U13C C51U C57U C87U C96G U139C: ≤ -4.2.
The same measure for G83A C93U A121U: -2.08.
With A41G A49C U55C C69A C85U C108U the figure was ≤ -4.2.
For the variant C5A G74A G81U U139G, the “polymerase ribozyme fitness (log ratio)” value was -3.53.
The same measure for A37U A41U A89G A115C A150U: ≤ -4.2.
The same measure for C96U U146G: -1.29.
With A3G G42C C69G C85G C118U C129U the figure was ≤ -4.2; with C35U G83C, -1.43.
On to A26C G94A, for which the “polymerase ribozyme fitness (log ratio)” value was -1.36.
The same measure for G83A G92U A119G A122C C149G: -4.14.
For the variant C35U A106C U144A, the “polymerase ribozyme fitness (log ratio)” value is -2.33.
The same measure for C10G G11U C79G G92U A110G C123G U130G A138G U146A: ≤ -4.2; for C85G U104A: -2.4.
For A29U G59C A64G C96G U104C U109G, the “polymerase ribozyme fitness (log ratio)” value is ≤ -4.2.
With A20C A21U A30G A40G G94U A121G A137U the figure was ≤ -4.2; with U13G C54U G84U, -2.19.
Take A19G G141C: the “polymerase ribozyme fitness (log ratio)” value was -0.542.
The same measure for U82C U101A: 0.112; for A49C G83C U90C A122G: ≤ -4.2; for G25A C79G U90A U104A G117U: ≤ -4.2.
On to A24C U44A G50U U55A, for which the “polymerase ribozyme fitness (log ratio)” value is ≤ -4.2.
The same measure for A21C G84U: -1.28; for G11C A122G: -2.55; for C75G C85A C103U A107G A122C: ≤ -4.2.
As to C14G A22U A39U, the “polymerase ribozyme fitness (log ratio)” value is ≤ -4.2.
Regarding U61G G117C A142C U146G, the “polymerase ribozyme fitness (log ratio)” value was ≤ -4.2.
With C10A A12U A28C A29C A107G the figure was ≤ -4.2; with G100C A137G G141C U148A, ≤ -4.2; with U55G C69U G71U G128A, ≤ -4.2.
The same measure for A16C A120C G140A: -3.75.
